Values quoted from earlier work as cited in article PMC13351906.
pKd: −log10 of the molar value.

Biological target: IL-6 receptor (Homo sapiens) (UniProt P08887)
Test: 125I-rhIL-6 radioligand binding

Chain of UniProt P08887 (P08887 20-365): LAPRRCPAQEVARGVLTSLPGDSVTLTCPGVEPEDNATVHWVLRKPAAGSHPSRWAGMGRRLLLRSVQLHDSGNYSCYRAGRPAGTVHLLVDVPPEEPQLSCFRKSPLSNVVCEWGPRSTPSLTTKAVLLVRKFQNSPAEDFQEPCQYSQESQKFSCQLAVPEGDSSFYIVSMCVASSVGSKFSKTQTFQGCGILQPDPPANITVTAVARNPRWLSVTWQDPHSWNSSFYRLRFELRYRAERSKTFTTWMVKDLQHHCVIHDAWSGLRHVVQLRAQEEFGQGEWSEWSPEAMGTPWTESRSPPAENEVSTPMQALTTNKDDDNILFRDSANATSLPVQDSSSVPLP
Chain of IL-6 (P05231 30-212): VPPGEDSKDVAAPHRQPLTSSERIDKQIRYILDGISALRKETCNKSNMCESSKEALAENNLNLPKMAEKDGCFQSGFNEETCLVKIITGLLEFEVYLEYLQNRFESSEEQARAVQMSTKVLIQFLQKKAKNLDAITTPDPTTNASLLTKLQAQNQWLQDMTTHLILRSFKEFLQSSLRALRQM

Substance: IL-6 (from UniProt P05231)
- pKd: 9.36
